Measured values taken from US20230028050A1 (JUNO THERAPEUTICS, published 2023).
Numbering of substitutions follows the chain as printed.

B1: anti-idiotype antibody clone 10 (antibody, mouse IgG1, kappa, V domains shown)
VH: EVKLLESGGGLVQPGGSLKLSCAASGFDFSRYWMSWVRQAPGKGLEWIGEINPDSSTINYTPSLKDKFIISRDNAKNTLYLQMSKVRSEDTALYYCARHGYYWYFDVWGAGTTVTVSS
VL: DIQMTQTTSSLSASLGDRVTISCRASQDISNYLNWYQQKPDGTVKLLIYYTSRLHSGVPSRFSGSGSGTDYSLTISNLEQEDIATYFCQQGNTLPYTFGGGTKLEIKR
notes: Mouse hybridoma antibody raised against the anti-BCMA CAR 1 scFv fused to mouse Fc and purified; Detected with a goat anti-mouse IgG secondary antibody; also called anti-ID clone 10
B2: anti-idiotype antibody clone 15 (antibody, mouse IgG1, kappa, V domains shown)
VH: QVQLQQSGAELVKPGASVKISCKASGYAFSSYWMNWVKQRPGKGLEWIGQIYPGNGETNNNGKFKGKATLTADISSSTAYMQLSSLTSEDSAVYFCARGGWYFDVWGTGTTVTVSS
VL: DIQMTQSPASLSASVGETVTITCRASENIYSYLAWYQQKQGKSPHLLVYNAYTLAEGVPSRFSGSGSDTQFSLKINSLQPEDFGNYYCQHHYGTPWTFGGGTKVEIKR
notes: Mouse hybridoma antibody, purified; also called anti-ID clone 15
B3: anti-BCMA CAR 1 (chimeric antigen receptor with the scFv of anti-BCMA Target Antibody 1) (receptor)
chain: SYELTQPPSASGTPGQRVTMSCSGTSSNIGSHSVNWYQQLPGTAPKLLIYTNNQRPSGVPDRFSGSKSGTSASLAISGLQSEDEADYYCAAWDGSLNGLVFGGGTKLTVLGSRGGGGSGGGGSGGGGSLEMAEVQLVQSGAEVKKPGESLKISCKGSGYSFTSYWIGWVRQMPGKGLEWMGIIYPGDSDTRYSPSFQGHVTISADKSISTAYLQWSSLKASDTAMYYCARYSGSFDNWGQGTLVTVSS
notes: Whole receptor expressed on Jurkat T cells; not shown: human IgG-derived spacer, human CD28-derived transmembrane domain, human 4-1BB-derived intracellular signaling domain an
B4: anti-idiotype antibody clone 16 (antibody, mouse IgG1, kappa, V domains shown)
VH: QVQLQQSGPELVKPGASVKISCKASGYTFTDFYINWVKQRPGQGLEWIGWIFPRSGSTYYNEKFKGKATLSVDKSSITAYMLLSSLTSEDSAVYFCARGDGYSGAMDYWGQGTSVTVSS
VL: B1 VL with R24S, D28G, S30R, R53N, Q80P, F87Y, G91Y, T93N, Y96R
notes: Mouse hybridoma antibody, purified; also called anti-ID clone 16
B5: anti-idiotype antibody clone 19 (antibody, mouse IgG2b, kappa, V domains shown)
VH: QVQLQQSGAELMKPGASVKLSCKATGYTFTAYWIEWVKQRPGHGLEWIGEILPGSGITKYSEKFKGKATFTADTSSNTAYMQLSSLTTEDSAIYYCARDYYSDNYWGQGTSVTVSS
VL: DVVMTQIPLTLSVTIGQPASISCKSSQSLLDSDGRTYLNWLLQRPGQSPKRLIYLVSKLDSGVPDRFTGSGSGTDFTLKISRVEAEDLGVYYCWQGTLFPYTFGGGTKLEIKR
notes: Mouse hybridoma antibody, purified; also called anti-ID clone 19
B6: soluble monomeric scFv-Fc fusion protein (scFv from anti-BCMA CAR 2) (Fc fusion)
chain: QSALTQPASVSASPGQSIAISCTGTSSDVGWYQQHPGKAPKLMIYEDSKRPSGVSNRFSGSKSGNTASLTISGLQAEDEADYYCSSNTRSSTLVFGGGTKLTVLGSRGGGGSGGGGSGGGGSLEMAEVQLVQSGAEMKKPGASLKLSCKASGYTFIDYYVYWMRQAPGQGLESMGWINPNSGGTNYAQKFQGRVTMTRDTSISTAYMELSRLRSDDTAMYYCARSQRDGYMDYWGQGTLVTVSS
notes: not shown: Fc
B7: soluble dimeric scFv-Fc fusion protein (scFv from anti-BCMA CAR 2) (Fc fusion)
chain: B6 chain
notes: not shown: Fc

How the values were obtained:
[1] = target: T1, anti-BCMA CAR 2 (chimeric antigen receptor with the scFv of anti-BCMA Target Antibody 2); experiment: flow cytometry; Jurkat T cells expressing anti-BCMA CAR 2, 5 µg/mL purified anti-ID, goat anti-mouse IgG secondary antibody; parental Jurkat cells as negative
T1 construct: Whole receptor expressed on Jurkat T cells, Nur77-tdTomato reporter cells or primary human T cells; not shown: human IgG2 and IgG4-derived spacer, human CD28-derived transmembrane domain, human 4-1BB-derived intracellular signaling

[2] = target: B7; experiment: SPR, BIAcore T200, against dimeric scFv-Fc
Protocol: (§1) Off rates and equilibrium dissociation constants were determined against a soluble monomeric scFv-Fc fusion protein as well as against a soluble dimeric scFv-Fc fusion protein. For comparison, the kinetics and affinity of soluble monomeric and dimeric BCMA-human Fc fusion proteins were also assessed against the monomeric and dimeric scFv-Fc fusion proteins, respectively. Off rates and equilibrium dissociation constants were determined using a BIAcore T200 instrument.

[3] = target: B6; experiment: SPR, BIAcore T200, against monomeric scFv-Fc
Protocol: as §1

[4] = target: B3; experiment: flow cytometry; Jurkat T cells expressing anti-BCMA CAR 1, 2.5 µg/mL anti-ID conjugated to Alexa Fluor 647, 20 min at 4 °C
[5] = target: T2, recombinant BCMA-Fc (soluble human BCMA fused at its C-terminus to an Fc region of IgG) fusion polypeptide (human, UniProt Q02223 1-54); experiment: flow cytometry; Jurkat T cells expressing anti-BCMA CAR 1, staining with recombinant BCMA-Fc as control
T2 construct: Used as a staining control; also called recombinant BCMA-Fc fusion polypeptide; not shown: Fc region of IgG
T2 sequence (looked up): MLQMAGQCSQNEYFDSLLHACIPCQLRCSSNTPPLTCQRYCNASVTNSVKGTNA

[6] = target: B3; experiment: flow cytometry; Jurkat T cells expressing anti-BCMA CAR 1, anti-ID conjugated to Alexa Fluor 647
[7] = target: T3, soluble monomeric BCMA-human Fc fusion protein (UniProt Q02223 1-54, limits assumed); experiment: SPR, BIAcore T200, against monomeric scFv-Fc
T3 construct: also called Monomeric BCMA-Fc; not shown: human Fc
T3 sequence (looked up): T2 sequence (looked up)
Protocol: as §1

[8] = target: T4, soluble dimeric BCMA-human Fc fusion protein (UniProt Q02223 1-54, limits assumed); experiment: SPR, BIAcore T200, against dimeric scFv-Fc
T4 construct: also called Dimeric BCMA-Fc; not shown: human Fc
T4 sequence (looked up): T2 sequence (looked up)
Protocol: as §1

Binder | Kd [2] [nM] | koff [2] [s⁻¹] | Kd [3] [nM] | koff [3] [s⁻¹] | other results
B1 | – | – | – | – | binding result [1]: binds
B2 | 2.2 | 4.4e-05 | 18 | 0.0036 | binding result [4]: binds
B3 | – | – | – | – | binding result [5]: binds
B4 | 2.6 | 0.00014 | 12 | 0.005 | binding result [6]: no binding (tested: 2.5 µg/mL)
B5 | 3.6 | 6.2e-05 | 55 | 0.0081 | –
B6 | – | – | – | – | Kd [7]: 290 nM; koff [7]: 0.024 s⁻¹
B7 | – | – | – | – | Kd [8]: 7 nM; koff [8]: 0.00014 s⁻¹
